Laboratory results as given in paper PMC5969902.
“And” between values parts separate entries of the source, which are not always exact repeats. Equal values may be shown once.

Legend:
mDia1 FH1 = mDia1 FH1 (UniProt O08808); details: cited from earlier work
[1] = molecular target: actin filament barbed ends elongating from unlabeled rabbit skeletal muscle actin (rabbit) (UniProt P68135); experiment: single-filament microfluidics with fluorescence microscopy; survival of formin-bound barbed ends, exponential fit; 1 µM unlabeled actin, no profilin; KCl and configuration not given
[2] = molecular target: actin filament barbed ends elongating from unlabeled rabbit skeletal muscle actin (rabbit) (UniProt P68135); experiment: single-filament microfluidics with fluorescence microscopy; survival of formin-bound barbed ends, exponential fit; 0.5 µM unlabeled actin, no profilin; KCl and configuration not given
[3] = molecular target: actin filament barbed ends elongating from unlabeled rabbit skeletal muscle actin (rabbit) (UniProt P68135); experiment: single-filament microfluidics with fluorescence microscopy; survival of formin-bound barbed ends, exponential fit; 1 µM unlabeled actin, 5 µM profilin; KCl and configuration not given
[4] = molecular target: actin filament barbed ends elongating from unlabeled rabbit skeletal muscle actin (rabbit) (UniProt P68135); experiment: single-filament microfluidics with fluorescence microscopy; survival of formin-bound barbed ends, exponential fit; 2 µM unlabeled actin, 5 µM profilin; KCl and configuration not given
[5] = molecular target: actin filament barbed ends elongating from unlabeled rabbit skeletal muscle actin (rabbit) (UniProt P68135); experiment: single-filament microfluidics with fluorescence microscopy; survival of formin-bound barbed ends, exponential fit; 3 µM unlabeled actin, 5 µM profilin; KCl and configuration not given
[6] = molecular target: actin filament barbed ends elongating from unlabeled rabbit skeletal muscle actin (rabbit) (UniProt P68135); experiment: single-filament microfluidics with fluorescence microscopy; survival of formin-bound barbed ends, exponential fit; 1 µM unlabeled actin, 10 µM profilin; KCl and configuration not given
[7] = molecular target: actin filament barbed ends elongating from unlabeled rabbit skeletal muscle actin (rabbit) (UniProt P68135); experiment: single-filament microfluidics with fluorescence microscopy; survival of formin-bound barbed ends, exponential fit; 2 µM unlabeled actin, 10 µM profilin; KCl and configuration not given
[8] = molecular target: actin filament barbed ends elongating from unlabeled rabbit skeletal muscle actin (rabbit) (UniProt P68135); experiment: single-filament microfluidics with fluorescence microscopy; survival of formin-bound barbed ends, exponential fit; 3 µM unlabeled actin, 10 µM profilin; KCl and configuration not given

Chain of profilin (P07274 whole entry): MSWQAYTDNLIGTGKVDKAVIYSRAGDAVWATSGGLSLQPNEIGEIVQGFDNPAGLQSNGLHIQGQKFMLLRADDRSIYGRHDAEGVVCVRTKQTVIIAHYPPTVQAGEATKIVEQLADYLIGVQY

| Substance | Kd (mDia1 FH1) [µM] | koff [1] | koff [2] [s⁻¹] | koff [3] | koff [4] [s⁻¹] | koff [5] | koff [6] | koff [7] [s⁻¹] | koff [8] [s⁻¹] |
| --- | --- | --- | --- | --- | --- | --- | --- | --- | --- |
| profilin (from UniProt P07274) | > 100 |  |  |  |  |  |  |  |  |
| mDia1(FH2-DAD) (from UniProt O08808 1-1255) (domain or fragment) |  | 0.0047 s⁻¹ and 0.0089 s⁻¹ | 0.004 | 0.0031 s⁻¹ and 0.0025 s⁻¹ and 0.0051 s⁻¹ | 0.0042 | 0.0063 s⁻¹ and 0.0085 s⁻¹ | 0.0025 s⁻¹ and 0.0036 s⁻¹ | 0.00226 | 0.0064 |
